Measurements as given in patent publication US20170088624A1 (Janssen / Centocor, published 2017).
Changes are numbered by the printed parent chain.

B1: C40M67 (antibody, human IgG1, kappa, V domains shown)
VH: EVQLLESGGGLVQPGGSLRLSCAASGFTFSDYAMNWVRQAPGKGLEWVSGIKSGGSSKYYADSVKGRFTISRDNSKNTLYLQMNSLRAEDTAVYYCAKHVDFYRALDYWGQGTLVTVSS
VL: EIVLTQSPGTLSLSPGERATLSCRASQSVKNSSLAWYQQKPGQAPRLLIYTASSRATGIPDRFSGSGSGTDFTLTISRLEPEDFAVYYCQQSSAPPWTFGQGTKVEIKR
notes: Full-length IgG1/kappa; from phage display
B2: C40M59 (antibody, human IgG1, kappa, V domains shown)
VH: QVQLVQSGAEVKKPGSSVKVSCKASGGTFSSYWISWVRQAPGQGLEWMGYIIPISGTARYAQKFQGRVTITADESTSTAYMELSSLRSEDTAVYYCAREPGYSSGLSVDYFDYWGQGTLVTVSS
VL: not shown
notes: as for B1
B3: C40M12 (antibody, human IgG1, lambda, V domains shown)
VH: EVQLVESGGGLVQPGGSLRLSCAASGFTFGSYAMSWVRQAPGKGLEWVSVISDSGGRTYYADSVKGRFTISRDYSKNTLYLQMNSLRAEDTAVYYCAKEGGDYYYYGMDVWGQGTTVTVSS
VL: SYELTQPPSVSVSPGQTASIICSGDKLGDKYVCWYQQKPGQSPVVVIYHDNKRPSGIPERFSGSNSGNTATLTISGTQAMDEADYYCQVWDSSTVVFGGGTKLTVLG
notes: Full-length IgG1/lambda; from OmniRat (OMT)
B4: C40M17 (antibody, human IgG1, lambda, V domains shown)
VH: B3 VH with G30S, K43R, V50T, S52N, D53N, R57G, Y74N, Q82H, D102K, G107A
VL: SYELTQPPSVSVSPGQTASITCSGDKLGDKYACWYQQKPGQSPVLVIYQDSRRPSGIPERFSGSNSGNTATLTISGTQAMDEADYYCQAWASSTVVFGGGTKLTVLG
notes: as for B3
B5: C40M66 (antibody, human IgG1, kappa, V domains shown)
VH: QVQLVQSGAEVKKPGSSVKVSCKASGGTFSSYAISWVRQAPGQGLEWMGGIIPIFGTANYAQKFQGRVTITADESTSTAYMELSSLRSEDTAVYYCARVRYSAWYRDSLDYWGQGTLVTVSS
VL: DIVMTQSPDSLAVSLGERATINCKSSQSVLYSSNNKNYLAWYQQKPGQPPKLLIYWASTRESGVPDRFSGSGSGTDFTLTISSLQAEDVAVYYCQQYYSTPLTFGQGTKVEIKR
notes: as for B1
B6: C40M63 (antibody, human IgG1, kappa, V domains shown)
VH: B5 VH with R100G, Y101H, S102P, Y105W
VL: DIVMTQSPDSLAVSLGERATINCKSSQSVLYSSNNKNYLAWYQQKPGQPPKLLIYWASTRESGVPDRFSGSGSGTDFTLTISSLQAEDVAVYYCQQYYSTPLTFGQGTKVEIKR
notes: as for B1
B7: C40M62 (antibody, human IgG1, kappa, V domains shown)
VH: B5 VH with R100A, Y101N, S102A, W104Y, Y105F, D107S, S108G
VL: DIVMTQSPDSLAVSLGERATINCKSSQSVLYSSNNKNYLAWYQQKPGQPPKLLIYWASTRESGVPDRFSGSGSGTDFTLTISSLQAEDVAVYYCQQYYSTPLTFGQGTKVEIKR
notes: as for B1

Target: T1, cyno CD40 (SPR analyte) (Macaca fascicularis (cynomolgus), UniProt P25942 21-193 (human entry), limits assumed)
T1 construct: also called cCD40-ECD
T1 chain: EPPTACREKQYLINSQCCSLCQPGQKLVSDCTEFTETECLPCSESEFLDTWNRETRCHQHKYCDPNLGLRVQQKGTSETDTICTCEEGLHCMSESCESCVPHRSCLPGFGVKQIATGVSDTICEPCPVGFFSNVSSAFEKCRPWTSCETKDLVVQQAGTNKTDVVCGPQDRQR
Test: SPR ProteOn XPR36, mAb captured by anti-human IgG Fc, cyno CD40 as analyte, 25 C
Method: (§1) Affinity measurements were performed using Surface Plasmon Resonance (SPR) using a ProteOn XPR36 system (BioRad). […] Approximately 5000 RU (response units) of mAbs were immobilized. The kinetic experiments were performed at 25° C. in running buffer (DPBS+0.01% P20+100 μg/ml BSA). To perform kinetic experiments, 200 RU of mAbs were captured followed by injections of analytes (human or cyno CD40) at 5 concentrations (in a 4-fold serial dilution). The association phase was monitored for 3 minutes at 50 μL/min, then followed by 15 minutes of buffer flow (dissociation phase). The chip surface was regenerated with two 18 second pulses of 100 mM H₃PO₄ (Sigma, Cat#7961) at 100 μL/min.
(§2) The collected data were processed using ProteOn Manager software. First, the data was corrected for background using inter-spots. Then, double reference subtraction of the data was performed by using the buffer injection for analyte injections. The kinetic analysis of the data was performed using a Langmuir 1:1 binding model. The result for each mAb was reported in the format of Ka (On-rate), Kd (Off-rate) and KD (equilibrium dissociation constant).

Binder	Kd	koff	kon
B1	1.85 nM	0.000341 s⁻¹	184000 M⁻¹ s⁻¹
B2	6.92 nM	0.000995 s⁻¹	144000 M⁻¹ s⁻¹
B3	0.243 nM	0.000441 s⁻¹	1.81e+06 M⁻¹ s⁻¹
B4	0.0368 nM	0.000157 s⁻¹	4.27e+06 M⁻¹ s⁻¹
B5	1.64 nM	0.000577 s⁻¹	352000 M⁻¹ s⁻¹

These binders were tested against T2, Full length human CD40 (huCD40) on cells (human, UniProt P25942 21-277) (assay: flow cytometry, human mature DCs).
T2 construct: CD40 on human mature DCs, human B cells, Raji cells and HEK-Blue CD40L cells (stably expressing human CD40); also called TNFRSF5
Method: (§3) Human monocytes were isolated from either frozen/fresh PBMC using CD14 negative isolation kit per manufacturer's protocol (MACS Miltenyi). Cyno monocytes were isolated from fresh PBMC using CD14 positive isolation kit per manufacturer's protocol (MACS Miltenyi). To generate DCs, monocytes were cultured for 5 days in complete media RPMI (Invitrogen) in the presence of 100 ng/ml human GM-CSF and human IL-4 (Peprotech) and media was replenished every 2 days. On day 5, DCs were stimulated with 100 ng/ml LPS (Sigma) for 24 hours. Cells were then stained with each of the tested CD40 antibody at different concentration in flow cytometry buffer (PBS+1% FBS; BD Bioscience) in 100 μl volume for 30 minutes on ice followed with two washes with flow buffer. Cells were then stained for additional 30 minutes on ice with APC-conjugated anti human IgG (Jackson ImmunoResearch) at the recommended dilution 1:100 and washed twice with flow buffer. Cells were analyzed for percent positive and Mean Fluorescence Intensity (MFI) to determine the antibody binding using Fortessa (BD Bioscience).
(§4) The experiments were conducted using assays described above. 20 antibodies were characterized further based on their binding to human DCs, cyno DCs, Raji cells and HEK-Blue™ CD40L cells.

Binder	EC50
B1	766 ng/mL
B2	826 ng/mL
B3	298 ng/mL
B4	127 ng/mL
B6	99.6 ng/mL
B5	202 ng/mL
B7	329 ng/mL

These binders were tested against T3, human CD40 (SPR analyte) (human, UniProt P25942 21-193) (assay: SPR ProteOn XPR36, mAb captured by anti-human IgG Fc, CD40 as analyte, 25 C).
T3 construct: also called huCD40-ECD
Method: as §1, §2
(§5) The parameters reported in this table were obtained from a 1:1 Langmuir binding model for all samples. Affinity, KD=kd/ka.

Binder	Kd	koff	kon
B1	1.91 nM	0.00031 s⁻¹	163000 M⁻¹ s⁻¹
B2	9 nM	0.00106 s⁻¹	118000 M⁻¹ s⁻¹
B3	0.136 nM	0.000176 s⁻¹	1.3e+06 M⁻¹ s⁻¹
B4	0.0294 nM	8.06e-05 s⁻¹	2.74e+06 M⁻¹ s⁻¹
B6	1.21 nM	0.000641 s⁻¹	528000 M⁻¹ s⁻¹
B5	3.05 nM	0.00116 s⁻¹	378000 M⁻¹ s⁻¹
B7	13.1 nM	0.00247 s⁻¹	189000 M⁻¹ s⁻¹

Target: T1, cyno CD40 (SPR analyte)
Test: SPR ProteOn XPR36, mAb captured, cyno CD40 as analyte, 25 C; did not fit well to 1:1 model
Method: as §1, §2, §5

Binder	Kd	koff	kon
B6	0.412 nM	0.000307 s⁻¹	746000 M⁻¹ s⁻¹
B7	2.64 nM	0.000908 s⁻¹	343000 M⁻¹ s⁻¹

Each binder was assayed against T2, Full length human CD40 (huCD40) on cells (assay: flow cytometry, HEK-Blue CD40L cells).

Binder	EC50
B1	550 ng/mL
B2	354 ng/mL
B3	112 ng/mL
B4	75.1 ng/mL
B6	84.9 ng/mL
B5	169 ng/mL
B7	228 ng/mL

These binders were tested against T2, Full length human CD40 (huCD40) on cells (assay: flow cytometry, Raji cells).

Binder	EC50
B1	247 ng/mL
B2	125 ng/mL
B3	29.9 ng/mL
B4	73.9 ng/mL
B6	39.6 ng/mL
B5	73 ng/mL
B7	99.4 ng/mL

These binders were tested against T2, Full length human CD40 (huCD40) on cells (assay: cell-based or functional assay).

Binder	B cells EC50, CD23 surface expression, with cross-linker	B cells EC50, CD80 surface expression, with cross-linker	B cells EC50, CD83 surface expression, with cross-linker	B cells EC50, CD86 surface expression, with cross-linker	B cells EC50, HLA-DR surface expression, with cross-linker
B1	4.17 ng/mL	3.32 ng/mL	1.46 ng/mL	2.26 ng/mL	0.792 ng/mL
B2	1240 ng/mL	10.6 ng/mL	10.8 ng/mL	15.4 ng/mL	4.84 ng/mL
B3	125000 ng/mL	6.23 ng/mL	2.84 ng/mL	2.28 ng/mL	4.27 ng/mL
B4	1.95 ng/mL	0.879 ng/mL	0.838 ng/mL	4.57 ng/mL	1.57 ng/mL
B6	6.94 ng/mL	0.0167 ng/mL	0.581 ng/mL	1.26 ng/mL	0.00966 ng/mL
B5	41.4 ng/mL	5.11 ng/mL	1.82 ng/mL	2.46 ng/mL	1.08 ng/mL
B7	12.5 ng/mL	1.54 ng/mL	1.26 ng/mL	1.14 ng/mL	0.356 ng/mL

Target: T2, Full length human CD40 (huCD40) on cells
Test: cell-based or functional assay
Remark: another data set of the same source

Binder	DC EC50, CD80 surface expression, with cross-linker	DC EC50, CD83 surface expression, with cross-linker	DC EC50, CD86 surface expression, with cross-linker	DC EC50, HLA-DR surface expression, with cross-linker
B1	49.9 ng/mL	127 ng/mL	202 ng/mL	50.7 ng/mL
B2	0.342 ng/mL	276 ng/mL	9.79 ng/mL	53.6 ng/mL
B3	0.00393 ng/mL	332 ng/mL	502 ng/mL	301 ng/mL
B4	36 ng/mL	306 ng/mL	33 ng/mL	
B6	70.5 ng/mL	0.962 ng/mL	258 ng/mL	154 ng/mL
B5	158 ng/mL	175 ng/mL	423 ng/mL	39.4 ng/mL
B7	602 ng/mL	218 ng/mL	381 ng/mL	60.4 ng/mL

Target: T4, Macaca fascicularis (cyno) CD40 (cCD40) on cells (Macaca fascicularis (cynomolgus), UniProt P25942 21-277 (human entry))
T4 construct: CD40 on cyno mature DCs
T4 chain: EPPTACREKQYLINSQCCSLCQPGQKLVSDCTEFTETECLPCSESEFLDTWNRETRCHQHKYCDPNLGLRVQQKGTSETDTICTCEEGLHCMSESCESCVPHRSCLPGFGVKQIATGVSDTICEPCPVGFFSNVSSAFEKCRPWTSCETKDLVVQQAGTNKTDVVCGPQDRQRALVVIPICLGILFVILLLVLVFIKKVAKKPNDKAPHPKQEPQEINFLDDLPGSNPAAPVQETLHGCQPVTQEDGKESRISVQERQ
Test: flow cytometry, cyno mature DCs
Method: as §3, §4

Binder	EC50
B1	327 ng/mL
B2	74 ng/mL
B3	47.4 ng/mL
B4	53.7 ng/mL
B6	30.9 ng/mL
B5	48.3 ng/mL
B7	71.6 ng/mL
